# Data: the DeepSol protein solubility set
# Experiment: soluble on expression in E. coli; label from the status in PepcDB or PDB records
row,Sequence,soluble on expression in E. coli
1,IFNGRPAQKGTTPWIAMLSHLNGQPFCGGSLLGSSWIVTAAHCLHQSLDPKDPTLRDSDLLSPSDFKIILGKHWRLRSDENEQHLGVKHTTLHPQYDPNTFENDVALVELLESPVLNAFVMPICLPEGPQQEGAMVIVSGWGKQFLQRFPETLMEIEIPIVDHSTCQKAYAPLKKKVTRDMICAGEKEGGKDACAGDSGGPMVTLNRERGQWYLVGTVSWGDDCGKKDRYGVYSYIHHNKDWIQRVTGVRN,soluble
2,IGDLSYSVSGNIATNNNEIVTLAGSDNMIQNGGDVVRYILKEGEAIGSYYGLETDGLYTQEEIDAGHYYKYGRKPNAGDIKYVPQRENVEWGDDITDDDRTIIGKDVPDFTYGININLQWKNFELSAFGQGVSGTSVAFESEQVFAFMLNSNPRKYHLSRWNEDNPNPNAACPRLYGGNYYDEYNKHFSDYQLFDADYFRIKTISLGYMVPKDAVTRWGLSSLKFFLTGENLFTFRADKDMKDFDPESSTGRGISAFGAKSVAFGVNVSF,not soluble
3,IGIVNDMPLAVEALRRALAFEPQHQIVWVASNGAEAVTQCAADTPDVVLMDLLMPVMDGVEATRRIMAESPCAIVIVTVDIEQNVHRVFEAMGYGALDAVNTPALGIGNPQTAAAPLLRKIQNVGWLIGQRDNRGKVQVVPPKAGGARQRLVAIGASAGGPASLAVLLKQLPASFNAAVVLVQHVDEVFAAGMAEWLASESKLPVRLARDGEPPIPGQILLAGTNNHIRLLRNGSLVYTAEPRSFVYRPSIDVFFESVANYWRGDAVGVLLTGMGRDGAQGLKQMRERGFLTIAQDQASCAVYGMPKAAAAIDAAVQILSLEKIA,not soluble
4,IKDFNYGVKFVLSDDQRKVTRYPNEELNRNQWYAGRMDGLVWGYETVGIAKTDAEMEAHLASLPNGGQSQLGSKWAAGDIMYKDLNGDGKISSGDGTLNDLGDLKVVANTQLRFKYGLTLDASWKGFDFSAFFQGVGKRDVVVGGPYFWGANGQGMWQAAAFKDHMDYFRPEDTESVFGPNVDAYYPRVIFGGGSSEGGKNTLTQSRYVQNGAYIRLKNLQLGYTLPSTITKKFAVNSLRVYVSGDNLWTGTKMRVFDPEVLGSTGDAGKAYPLARVWSVGLNVNF,not soluble
5,IKDFNYRIGFNLYDSQSEITKFNNETNLLGTYRKGQKIGEIWGYVTDRFYREDDFNADGTLKEGIPIPKGVGKVYPGDILYKNFDDDASTIWSGKGTADDPGDQRIIGNSTPRFHYGINAGLSWKGFDLSVFLRGVGKRDFWRTDQIAWPTGTWGSLFKETLDFWTPEHTDAYFPRVYANNGVNTASNRWKQTKYLANAAYLKLQNITLSYTLPKTWAKQICFDEVKVFFSGENLHTWDHLPEGLESDMLSKGAWEYPFMKKFSLGFNVTF,not soluble
6,IKKEPEKPIDREKTCPLLLRVFTTNNGRHHRMDEFSRGNVPSSELQIYTWMDATLKELTSLVKEVYPEARKKGTHFNFAIVFTDVKRPGYRVKEIGSTMSGRKGTDDSMTLQSQKFQIGDYLDIAITPPNRAPPTSGRMRPY,not soluble
7,IKPTYQGHVTVIIGRNDSKSSTNEQYNDVMMSQNLTKTYAQIAESRSVASKTVSKLSNGTTIDQVSKVVSVTPETGTQIIDITANAKSPEEAADLANDFSDSFVAVSKEVYTAGDARIIDRATAPKSPIKPKK,not soluble
8,INALVIGDLMLDQYLWGKAERISPEAPVQVVDVTREEIRIGGAGNVANNLVALGCRVSVASVVGGDENGTILLHAFSGKGIDVTGIVEDPSRTTSRKTRVLASNQQIVRIDRESRDEIGPDNERRIVDYLNAHGDRFNVILVSDYLKGVLTPTLLAEVIAFARKREIPVVVDPKGSDYAKYRGATVLTPNRKEAEAASGIAIRDDESLCRAGERLLETADLTALVITRSEEGMSLFLRGGQVVHIPTYAREVFDVTGAGDTVLAVLGMALAGGVGFADGARLANVAAGVAVGKVGTSTVSPAEIVGSLG,not soluble
9,INQPVIETERFDLRPLRKSDMGLIEHYARDERVARMTTSIPHPLPPGMAEGFVARAMSEERTEDVWAMDATRDGGPELMGLISLERMDRNQSEVGYWVAPVFWNTGIASMAVEALVNANPLGNATMFASVFQDNPASARVLTHCGFQYLGDAESYSVARDAAVPTWTYSRKL,soluble
10,INTVNLINQMKTLAAQAEGIKPDSGLNHASFSSVFQQALNQVNELSQTADSLKTRFEIGDPNVSLGEVMIASQKSNLGFEATLRVRNKLVQAYQDIMNMPV,not soluble
11,ISVDTLNTKELIEAINLGADMILSVDAGNLDELIPYLKDSETAVVVLPTNYKTNYVPETIEGKIKSLEENIKKLIDAGIEKIVADPILEPINNAGCSFIESVIACREFKKRNKLPLFFGVGNVTELFDADSNGVNALLAAIGAEIGANILFTPEASAKCKFSIKELKIASKMMFLAKKRNSLPKDIGYNLINYKDKRFEEEITFNSYNIPIIKAEEDERQILDEGSFKIEIDRKNKEIVAIYFNKRREPVLIIRGKKPKEIYETAIRLNLIKKLDHASYFGRELAKAEIALRIGKKYNQDFDLF,not soluble
12,KAAPAEPATGPFNVSATSPVTGQNYQMSCTAHDHVMRCSGGNNAIVLLTPNPTGVVEEKTYEYALEGTVVLKNTAEVLEGLKPPNNDNPNNEYILLWFDNPMDVAGKHAGNRDQLSTKNVRYLSLGKKETTQYGPLPDTTGPWRQYVGKRIRLHVNSDNMRYPSDTGMPLGALRLEEAPDIRIEEL,not soluble
13,KARLIYNPTSGQEIMKKNVAEVLDILEGFGYETSAFQTTPTKNSARDEATRAAQAGFDLIVAAGGDGTINEVVNGIAPLKRRPKMAIIPTGTTNDFARALKIPRGNPIEATKLIGKNQIVKMDIGQAQED,not soluble
14,KDEIGVIGIDDAPFNKFDKEALIVGTYMRGNKLVDEISFKKIEKDGFDSTEKILKIVKDKHFTKINAIFLDGVTFGGFNIADIVKIYNETKIPVIAVMEKEPDLLKMKSALKKYFFDFPEKIEMLESFPKPEPFENIFIQCIGISFEDACKLIKKTRLRSKIPECLRISHLVGRGFLNME,not soluble
15,KDYDAYLSYTKVDPDQWNQETGEEERFALEILPDMLEKHYGYKLFIPDRDLIPTGTYIEDVARCVDQSKRLIIVMTPNYVVRRGWSIFELETRLRNMLVTGEIKVILIECSELRGIMNYQEVEALKHTIKLLTVIKWHGPKCNKLNSKFWKRLQYEMPF,soluble
16,KFWRRWAGQSQYKGRWREMVTRSALALKLLTSRKHGGIVAAATFGLPETEAGERNWDYRYTWIRDASFTVYAFMRLGYTDEANAFMGWVRGRLDDCCEQTEKLGILYALDGHAELPEEHLDHLTGYGGAQPVRIGNEAYKQVQLDIYGELMDAVYLANKYGDAISHDGWQHVVRQVDYVCEHWNDRDVGIWEMRGGDQHFLHSRLMCWVALDRALRLAFKRSLSGPFERWNKVREDIQNDIWDNFWNEELGHFVQYKGSRNLDASMLLMPLVRFVGANDPKWLATLDAIEAALVRDGMVFRYRNDDDHDDGLAGEEGAFVACSFWYVECLARAGRVEQAHLEFEQLLRYANPLGLYAEEFDGHARHLGNTPQALSHLALISAASFLDRKLSGEQALWQP,not soluble
17,KHLPEPFRIRVIEPVKRTTRAYREEAIIKSGMNPFLLDSEDVFIDLLTDSGTGAVTQSMQAAMMRGDEAFSGSRSYYALAESVKNIFGYQYTIPTHQGRGAEQIYIPVLIKKREQEKGLDRSKMVAFSNYFFDTTQGHSQINGCTVRNVYIKEAFDTGVRYDFKGNFDLEGLERGIEEVGPNNVPYIVATITSNSAGGQPVSLANLKAMYSIAKKYDIPVVMDSARFAENAYFIKQREAEYKDWTIEQITRETYKYADMLAMSAKKDAMVPMGGLLCMKDDSFFDVYTECRTLCVVQEGFPTYGGLEGGAMERLAVGLYDGMNLDWLAYRIAQVQYLVDGLEEIGVVCQQAGGHAAFVDAGKLLPHIPADQFPAQALACELYKVAGIRAVEIGSFLLGRDPKTGKQLPCPAELLRLTIPRATYTQTHMDFIIEAFKHVKENAANIKGLTFTYEPKVLRHFTAKLKEV,soluble
18,KIVCDFTEYNPLHKGHKYALEKGKEHGIFISVLPGPLERSGRGIPYFLNRYIRAEMAIRAGADIVVEGPPMGIMGSGQYMRCLIKMFYSLGAEIIPRGYIPEKTMEKVIDCINKGYHIQVKPYKIICIETGEILGEKLNIDNYVIASMSQMIYKLNREGLKFNPKFVFVKRLEGISGTKIREAIFSGKFEDIKNMLPKTTLSILKELYDNGKL,not soluble
